Source: publication PMC12714728 (npj Viruses, 2025)
Starred links: 1 amine or outer side, 2 acyl side, 3 side chain; linkers in the order of their positions; H or OH if unused. Positions of bridges follow the written chain, without caps; N, C: chain ends. No end group written: not given here. Suc = O=C(CCC(=O)[*:2])[*:1]

B1: cyclic peptide CP11 (peptide)
peptide: CYRDPLGVAGGMC
modifications: disulfide 1-13
notes: source: synthetic peptide (manual solid phase Fmoc chemistry, iodine oxidation, RP-HPLC)
B2: cyclic peptide CP8 (peptide)
peptide: CLYRDPLGVAGGMGC
modifications: not fully specified (bridges); cysteine pairing not given here
notes: as for B1
B3: linear peptide LP1 (peptide)
peptide: Suc-VSLYRDPLGVAGGMGVY-NH2
notes: source: synthetic peptide (manual solid phase Fmoc chemistry, RP-HPLC)
B4: cyclic peptide CP14 (peptide)
peptide: LYEDPLGVAGGMG
modifications: head-to-tail lactam cyclized (no template)
notes: as for B3

How the values were obtained:
[1] = target: T1, hemagglutinin (HA) ectodomain of A/New Caledonia/20/1999 (H1N1) (influenza A virus A/New …, biotin on the BirA site); assay: AlphaScreen or HTRF; settings: both partners purified
[2] = target: T1, hemagglutinin (HA) ectodomain of A/New …; assay: cell-based or functional assay

Binder | IC50 [1] [µM] | virus neutralization assay (VNA) EC50, H1/NCa virus [2] [µM]
CYRDPLGVAGEMC (not fully specified; cysteine pairing not given here) [cyclic peptide CP13] | 12.8 | –
CYEDPLGVAGGMC (not fully specified; cysteine pairing not given here) [cyclic peptide CP12] | 4.95 | 58.3
B1 | 4.99 | –
B2 | 0.16 | 0.28
B3 | 22.9 | –
B4 | 1.24 | 45.3
